B1: cystatin F in human plasma (natural protein, human (endogenous in plasma), UniProt O76096 20-145, looked up)
chain: GPSPDTCSQDLNSRVKPGFPKTIKTNDPGVLQAARYSVEKFNNCTNDMFLFKESRITRALVQIVKGLKYMLEVEIGRTTCKKNQHLRLDDCDFQTNHTLKQTLSCYSEVWVVPWLQHFEVPVLRCH
notes: cystatin F, secreted form in plasma; also called secreted cystatin F; cystatin F dimer; source: endogenous, human plasma (AD patients and controls)
B2: native cystatin F in cultured monocytes (natural protein, UniProt O76096 20-145, looked up)
chain: GPSPDTCSQDLNSRVKPGFPKTIKTNDPGVLQAARYSVEKFNNCTNDMFLFKESRITRALVQIVKGLKYMLEVEIGRTTCKKNQHLRLDDCDFQTNHTLKQTLSCYSEVWVVPWLQHFEVPVLRCH
notes: cystatin F of cultured monocytes; also called intracellular cystatin F protein; extracellular proteins; source: endogenous, cultured monocytes (intracellular and extracellular)

Target: the molecule itself
Test: native gel or EMSA; nondenaturing gel (loading buffer without DTT) and western blot with anti-cystatin F; plasma diluted in PBS, or cultured monocytes

| Protein | stoichiometry N |
| --- | --- |
| B1 | 2 |
| B2 | 2 |

— paper PMC11088181, “Monocytes release cystatin F dimer to associate with Aβ and aggravate amyloid pathology and cognitive deficits in Alzheimer’s disease” (Journal of Neuroinflammation, 2024)
